# Results from US6518063, “Osf2/Cbfa1 nucleic acids and methods of use therefor” (Board of Regents, The University of Texas System).
# B1: Osteopontin OSE2 (dsDNA)
# DNA 1: CGCTCTTTGTGCAAACCACACAG
# DNA 2: CTGTGTGGTTTGCACAAAGAGCG
# B2: Osteocalcin (OG2) OSE2 (dsDNA)
# DNA 1: AGCTGCAATCACCAACCACAGCA
# DNA 2: TGCTGTGGTTGGTGATTGCAGCT
# Tests used:
# Osf2/Cbfa1 [1] = target: T1, Osf2/Cbfa1 (Mus musculus, UniProt Q08775 SEQ:1-528); assay: cell_activity; p910-Opn-luc promoter fragment, F9 cells; deletion of element abolished; conditions: tags: pCMV5 expression
# [2] = target: delta.runt.PST + Cbfb heterodimer (UniProt Q08775;Q08024 Q08775:188-607,Q08024:1-187); assay: EMSA; supershifted heterodimer complex; conditions: tags: 6xHis (pTrcHis); chain copies: 2 (1:1 heterodimer, inferred); label: 32P
# Description: FIG. 18A. The QA domain prevents heterodimerization of Osf2 with Cbfβ. EMSA done with labeled double-stranded OSE2 oligonucleotide, and equivalent amounts of the Histidine-tagged wild-type and mutant proteins, in the presence or absence of Cbfβ. The nonspecific band (NS) is indicated by an arrow. Arrowheads indicate the supershifted complexes seen in lanes 4 and 10.
# (§1) 5.6.1.3 Generation of Recombinant Fusion Proteins, DNA-binding Assays, and In Vitro Binding Assays For protein production, bacterial cells were induced with 2 mM IPTG, and the fusion proteins were enriched using Ni-NTA agarose resin (Qiagen Chatsworth, Calif.) as per the manufacturer's guidelines. DNA-binding assays were performed with 5 fmol of ^32P-labeled double-stranded OSE2 oligonucleotides, in a buffer containing 20 mM Tris-HCl, pH 8.0, 10 mM NaCl, 3 mM EGTA, 0.05% NP-40, 5 mM DTT, and 2 μg of poly (dI.dC).poly (dI.dC), with equivalent amounts of wild type or mutant proteins. […] The proteins were checked for purity and quantified before use. ^35S-labeled Osf2 and Cbfa2 were synthesized in rabbit reticulocyte lysate using coupled in vitro transcription and translation (TNT kit, Promega). Typically, 100 ng of fusion protein bound to glutathione-agarose beads was used for each assay, while the amount of labeled protein in the assay was determined using fluorography. […]
# OSF2/CBFA1a = OSF2/CBFA1a (Homo sapiens, UniProt Q13950 SEQ:1-521); assay: cell_activity; p6OSE2-luc, F9 cells; conditions: tags: pCMV expression
# Method: FIG. 8B. F9 mouse teratocarcinoma cells were transiently transfected with 5 μg of the reporter plasmid in presence of 5 μg of the indicated expression vector. Values are expressed relative to the basal activity of p6OSE2-luc which was set at 1. Data represent results from 3 independent transfection studies.
# The mouse F9 teratocarcinoma cell line was used for the DNA transfection studies. The cells were plated on 10-cm dishes at a density of 5×10^5 cells/dish. Cells were transfected by the calcium phosphate coprecipitation method (Chen and Okayama, 1987), using 5 μg of reporter plasmid, 5 μg of expression plasmid and 2 μg of pRSV/βGal as previously described (Geoffroy et al., 1995). The p6OSE2-luc plasmid containing six copies of the wild-type OSE2 oligonucleotide in front of the −34/+13 mOG2 promoter-luciferase (luc) was used as reporter plasmid (Ducy and Karsenty, 1995). The pCMV-hOSF2/CBFA1a and pCMV-hOSF2/CBFA1b were used as expression plasmids. They contain respectively the full length hOSF2/CBFA1a cDNA and the hOSF2/CBFA1b cDNA lacking exon 8 in correct orientation downstream from the CMV promoter. Luciferase and β-galactosidase activities were assayed as previously described (Geoffroy et at, 1995). […]
# [3] = target: His-Cbfa2 + His-Cbfb heterodimer (UniProt Q03347;Q08024 Q03347:1-451,Q08024:1-187); assay: EMSA; slower heterodimer complex; conditions: tags: 6xHis on each (pTrcHis); chain copies: 2 (1:1 heterodimer, inferred); label: 32P
# Method: as §1
# (§2) Since Cbfβ is also expressed in osteoblasts, the inventors tested if Cbfβ was also a partner for Osf2 using an electrophoretic mobility shift assay (EMSA). […] In contrast, when using His-Cbfa2 protein as a positive control, the inventors always detected heterodimerization with Cbfβ, resulting in a protein-DNA complex of slower mobility (FIG. 18A, compare lanes 3 and 4). […]
# Osf2/Cbfa1 [4] = target: T1, Osf2/Cbfa1; assay: cell_activity; p6OSE2-luc (6 copies), F9 cells; conditions: tags: pCMV5 expression
# Method: After transfection the cells were washed twice with PBS (150 mM NaCl, 10 mM sodium phosphate [pH 7.2]), and regular medium was added for 24 h. Cells were harvested and lysed by three cycles of freeze-thawing. β-galactosidase activities present in each lysate, measured by a colorimetric enzyme assay (Ausubel et al., 1997) using resorufin β-D-galactopyranoside (Boehringer Mannheim) as a substrate, were used to normalize the transfection efficiency between different studies. DNA cotransfections (Ausubel et al., 1997) were performed in duplicates and repeated at least four times with quantitatively and qualitatively similar results. Luciferase activities were assayed using a Monolight 2010 luminometer (Analytical Luminescence Laboratory, San Diego, Calif.) and D-luciferin substrate (Analytical Luminescence Laboratory) in 100 mM Tris-HCl [pH 7.8], 5 mM ATP, 15 mM MgSO_4, 1 mM dithiothreitol (DTT). For overexpression studies, expression plasmids were transfected for 4 h with Lipofectamin (GIBCO) following the manufacturer's instructions. RNA were harvested 40 h after transfection. […]
# The transcriptional activity of Osf2/Cbfa1 was assessed by DNA cotransfection studies. […]
# His-Cbfa2 = His-Cbfa2 (Mus musculus, UniProt Q03347 SEQ:1-451); assay: EMSA; conditions: tags: 6xHis (pTrcHis); label: 32P
# Method: as §1, §2
# T1 sequence (Q08775 80-607): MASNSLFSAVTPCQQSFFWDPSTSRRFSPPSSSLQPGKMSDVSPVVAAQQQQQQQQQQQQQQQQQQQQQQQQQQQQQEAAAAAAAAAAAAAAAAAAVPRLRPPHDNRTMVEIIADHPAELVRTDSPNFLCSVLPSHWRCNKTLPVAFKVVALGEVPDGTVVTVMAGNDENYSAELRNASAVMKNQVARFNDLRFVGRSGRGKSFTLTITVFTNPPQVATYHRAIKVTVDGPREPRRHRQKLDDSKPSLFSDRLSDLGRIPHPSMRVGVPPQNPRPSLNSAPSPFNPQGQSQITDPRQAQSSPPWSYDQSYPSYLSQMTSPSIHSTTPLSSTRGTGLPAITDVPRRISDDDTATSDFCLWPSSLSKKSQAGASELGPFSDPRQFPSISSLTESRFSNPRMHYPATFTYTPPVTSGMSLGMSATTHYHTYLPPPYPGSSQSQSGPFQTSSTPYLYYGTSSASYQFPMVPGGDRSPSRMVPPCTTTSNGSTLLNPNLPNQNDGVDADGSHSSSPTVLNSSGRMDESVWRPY
# OSF2/CBFA1a, sequence (Q13950 whole entry P266H/R267G): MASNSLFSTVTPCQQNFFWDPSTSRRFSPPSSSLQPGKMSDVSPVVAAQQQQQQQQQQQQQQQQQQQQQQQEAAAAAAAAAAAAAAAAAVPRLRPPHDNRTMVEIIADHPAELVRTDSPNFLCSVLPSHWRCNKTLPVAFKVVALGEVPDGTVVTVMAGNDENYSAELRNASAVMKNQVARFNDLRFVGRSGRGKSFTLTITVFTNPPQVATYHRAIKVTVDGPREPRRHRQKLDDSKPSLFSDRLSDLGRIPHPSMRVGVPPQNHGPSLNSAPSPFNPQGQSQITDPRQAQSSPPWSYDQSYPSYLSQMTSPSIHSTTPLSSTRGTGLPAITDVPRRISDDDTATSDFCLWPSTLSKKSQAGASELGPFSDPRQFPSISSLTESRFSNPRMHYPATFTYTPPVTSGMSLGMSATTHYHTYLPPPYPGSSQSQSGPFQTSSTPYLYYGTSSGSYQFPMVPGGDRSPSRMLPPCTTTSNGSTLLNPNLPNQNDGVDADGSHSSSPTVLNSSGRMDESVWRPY
# delta.runt.PST + Cbfb heterodimer, sequence (Q08775 188-607, stated change not applied, chain 1 of 2): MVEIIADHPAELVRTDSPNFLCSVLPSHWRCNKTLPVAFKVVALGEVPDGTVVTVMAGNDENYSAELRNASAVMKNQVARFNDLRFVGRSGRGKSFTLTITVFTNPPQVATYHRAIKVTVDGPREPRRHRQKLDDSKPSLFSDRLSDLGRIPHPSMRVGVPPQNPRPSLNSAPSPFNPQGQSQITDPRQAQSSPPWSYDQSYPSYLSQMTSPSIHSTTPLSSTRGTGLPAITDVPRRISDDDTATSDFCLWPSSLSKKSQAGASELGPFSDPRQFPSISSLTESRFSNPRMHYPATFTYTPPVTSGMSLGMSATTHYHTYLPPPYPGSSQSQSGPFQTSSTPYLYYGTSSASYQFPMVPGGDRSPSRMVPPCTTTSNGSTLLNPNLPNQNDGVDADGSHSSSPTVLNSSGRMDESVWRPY
# delta.runt.PST + Cbfb heterodimer, sequence (Q08024 whole entry, stated change not applied, chain 2 of 2, the tested form may be a part): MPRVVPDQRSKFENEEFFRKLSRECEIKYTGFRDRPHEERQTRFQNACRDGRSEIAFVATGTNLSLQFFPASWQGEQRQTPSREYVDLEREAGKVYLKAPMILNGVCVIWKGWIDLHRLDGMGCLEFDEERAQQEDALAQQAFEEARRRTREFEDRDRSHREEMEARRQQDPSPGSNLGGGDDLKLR
# His-Cbfa2 + His-Cbfb heterodimer, sequence (Q03347 whole entry, chain 1 of 2): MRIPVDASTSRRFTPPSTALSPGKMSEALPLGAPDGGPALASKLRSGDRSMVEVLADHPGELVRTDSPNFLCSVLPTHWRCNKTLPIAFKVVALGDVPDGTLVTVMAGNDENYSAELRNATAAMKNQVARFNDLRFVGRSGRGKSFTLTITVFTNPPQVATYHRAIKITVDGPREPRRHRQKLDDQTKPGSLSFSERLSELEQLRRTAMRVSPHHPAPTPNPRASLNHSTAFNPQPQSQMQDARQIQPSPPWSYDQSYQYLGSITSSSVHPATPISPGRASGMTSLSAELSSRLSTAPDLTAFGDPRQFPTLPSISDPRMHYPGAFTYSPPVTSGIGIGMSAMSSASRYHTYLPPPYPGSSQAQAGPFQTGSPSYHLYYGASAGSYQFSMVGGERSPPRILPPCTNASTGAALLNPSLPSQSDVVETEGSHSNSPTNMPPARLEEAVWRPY
# His-Cbfa2 + His-Cbfb heterodimer, sequence (Q08024 whole entry, chain 2 of 2): as the sequence (Q08024 whole entry, stated change not applied, chain 2 of 2, the tested form may be a part) above
# His-Cbfa2, sequence (Q03347 whole entry): as the sequence (Q03347 whole entry, chain 1 of 2) above
Binder,activity (Osf2/Cbfa1 [1]) [fold activation],binding result [2],activity (OSF2/CBFA1a) [fold activation],binding result [3],activity (Osf2/Cbfa1 [4]) [fold activation],binding result (His-Cbfa2)
B1,4,–,–,–,–,–
B2,–,binds,75,binds,> 70,binds
